Laboratory results as given in doi:10.1101/2025.01.28.635353, “DyAb: sequence-based antibody design and property prediction in a low-data regime” (bioRxiv, 2025).
Substitutions are numbered along the chain they refer to. Values belong to the binder of their own block, whether it stands above or below them.

Biological target: T1, EGFR (Homo sapiens, isoform 1 (assumed), UniProt P00533)
T1 construct: EGFR, the target antigen injected in SPR
Assay: SPR; antibody captured on a Protein A chip, target antigen injected 5 min, dissociation 10 min at 30 µL/min; multi-cycle mode; 37 degC; HBS-EP+ (10 mM Hepes pH 7.4, 150 mM NaCl, 0.3 mM EDTA, 0.05% Surfactant P20); 1:1 Langmuir fit; absolute affinities of the leads are medians across all experimental rounds
Details: both partners purified

- Kd: 3 nM
B1: anti-EGFR lead (antibody, V domains shown)
VH: EVKLQQSGDETMRPGASVRMSCKAYGYTFTDYSVHWIRQRPGQGLEWIGIIIPLIDTTRYNQKFKGKAVLTADTSSDTAYMELSRLTFEDSAVYYCARSYGSSGDDWFAYWGQGTLVTVSS
VL: DTVLTQSPALSVSPGERVDISCRASESVSTLLHWYQQKPGQQPTLLISLASSLESGVPARFSGSGSGTDFTLTIDPVEADDTAIYYCQESWNEPYAFGAGTKLELK
notes: the Fab of this antibody was crystallised and deposited as PDB 9MU1 (heavy chain); the Fab of this antibody was crystallised and deposited as PDB 9MU1 (light chain); The methods tell the production (Expi293, purified) only of the DyAb designs; The Fab for the crystal was made in CHO cells; also called aEGFR lead; starting point lead candidate

- binding result: binds
B2: aEGFR-R1-1 (antibody, V domains shown)
VH: B1 VH with V34M, V69T, G101D, S102P
VL: B1 VL
notes: the Fab was crystallised and deposited as PDB 9MSW (heavy chain); as the heavy chain of m1 with four mutations across CDR-H1, CDR-H3 and the framework (Kabat numbering); the Fab was crystallised and deposited as PDB 9MSW (light chain); The Fab for the crystal was made in CHO cells; also called R1-1 design; DyAb design aEGFR-R1-1; source: Expi293, transiently expressed, purified from supernatant
